From patent US20190248900A1 (Y BIOLOGICS, published 2019) come the findings set out here.

Experiment in all cases: scFv-phage ELISA
For orientation: ELISA stands for enzyme-linked immunosorbent assay.

The target of one assay is T1, M14.
T1 construct: also called PD1 mutant M14

In another assay the target is T2, M13.
T2 construct: also called PD1 mutant M13

The target in another assay is T3, M6.
T3 construct: also called PD1 mutant M6

For the next assay, the target named is T4, M5-2.
T4 construct: also called PD1 mutant M5-2

Another assay concerns the target T5, M5-1.
T5 construct: also called PD1 mutant M5-1

Another assay has as its target T6, M1-1.
T6 construct: also called PD1 mutant M1-1

The target of a further assay is T7, M7-2.
T7 construct: also called PD1 mutant M7-2

A further assay concerns the target T8, M12.
T8 construct: also called PD1 mutant M12

In another assay the target is T9, M3.
T9 construct: also called PD1 mutant M3

The next assay concerns the target T10, M1.
T10 construct: also called PD1 mutant M1

The target of a further assay is T11, M1-2.
T11 construct: also called PD1 mutant M1-2

Another assay has as its target T12, M4.
T12 construct: also called PD1 mutant M4

The target of a further assay is T13, M2-1.
T13 construct: also called PD1 mutant M2-1

In a further assay the target is T14, M2-2.
T14 construct: also called PD1 mutant M2-2

Another assay has as its target T15, M5.
T15 construct: also called PD1 mutant M5

The next assay addresses T16, M10.
T16 construct: also called PD1 mutant M10

The next assay addresses T17, M7.
T17 construct: also called PD1 mutant M7

Another assay concerns the target T18, ITGA6-Fc.
T18 construct: Fc fusion
T18 sequence (P23229 whole entry, species assumed, looked up): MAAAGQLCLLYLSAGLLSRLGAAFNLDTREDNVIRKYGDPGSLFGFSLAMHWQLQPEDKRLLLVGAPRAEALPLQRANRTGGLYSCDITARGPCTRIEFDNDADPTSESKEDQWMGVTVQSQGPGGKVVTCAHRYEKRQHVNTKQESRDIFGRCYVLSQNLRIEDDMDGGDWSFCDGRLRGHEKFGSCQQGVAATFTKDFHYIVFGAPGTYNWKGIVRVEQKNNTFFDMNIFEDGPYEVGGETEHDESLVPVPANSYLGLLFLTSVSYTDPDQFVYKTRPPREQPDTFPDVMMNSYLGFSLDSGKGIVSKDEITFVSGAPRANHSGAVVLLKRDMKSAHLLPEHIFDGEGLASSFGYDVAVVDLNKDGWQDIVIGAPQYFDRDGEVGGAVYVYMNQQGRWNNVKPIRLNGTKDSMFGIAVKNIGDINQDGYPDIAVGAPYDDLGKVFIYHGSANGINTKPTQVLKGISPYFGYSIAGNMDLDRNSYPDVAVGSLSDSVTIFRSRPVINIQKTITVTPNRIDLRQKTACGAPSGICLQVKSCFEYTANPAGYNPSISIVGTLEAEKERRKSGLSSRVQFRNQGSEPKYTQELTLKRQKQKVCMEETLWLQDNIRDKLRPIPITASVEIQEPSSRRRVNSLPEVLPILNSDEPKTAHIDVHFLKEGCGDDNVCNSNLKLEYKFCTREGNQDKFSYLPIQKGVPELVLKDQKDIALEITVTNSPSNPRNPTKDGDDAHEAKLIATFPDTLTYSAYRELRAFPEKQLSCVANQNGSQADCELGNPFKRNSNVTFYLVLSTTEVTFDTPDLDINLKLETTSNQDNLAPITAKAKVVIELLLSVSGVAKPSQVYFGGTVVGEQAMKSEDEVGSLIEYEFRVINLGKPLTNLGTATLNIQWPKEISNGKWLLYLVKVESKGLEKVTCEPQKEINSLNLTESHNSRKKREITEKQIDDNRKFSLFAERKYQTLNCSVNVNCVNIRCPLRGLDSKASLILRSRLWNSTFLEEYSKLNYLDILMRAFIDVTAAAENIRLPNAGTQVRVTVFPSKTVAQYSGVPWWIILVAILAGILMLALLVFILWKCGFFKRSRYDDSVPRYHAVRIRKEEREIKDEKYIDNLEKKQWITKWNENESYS

The next assay deals with T19, M7-1.
T19 construct: also called PD1 mutant M7-1

Another assay has as its target T20, M9.
T20 construct: also called PD1 mutant M9

The next assay concerns the target T21, M2.
T21 construct: also called PD1 mutant M2

Another assay has as its target T22, M11.
T22 construct: also called PD1 mutant M11

A further assay concerns the target T23, M8.
T23 construct: also called PD1 mutant M8

Assay [1] deals with T24, antigen PD1 (coated, construct not stated) (UniProt Q15116 25-170, limits assumed).
T24 construct: also called PD1 antigen; PDCD1
T24 sequence (Q15116 25-170 limits assumed): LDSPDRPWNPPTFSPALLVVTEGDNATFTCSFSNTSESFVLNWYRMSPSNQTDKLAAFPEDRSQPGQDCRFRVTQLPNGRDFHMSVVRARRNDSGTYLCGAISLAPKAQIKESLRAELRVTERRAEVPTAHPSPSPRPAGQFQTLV

B1: PD1-51D9 (antibody, V domains shown)
VH: QVQLVESGAEVKKPGASVKLSCKASGYTFSSYWMHWVRQAPGQRLEWMGEINPGNGHTNYNEKFKSRVTITVDKSASTAYMELSSLRSEDTAVYYCAREGDGSYWGYFDSWGQGTPITVSS
VL: DIVMTQTPLSLPVTPGEPASISCRSSQSLLHSNGNNYLDWYLQKPGQSPQLLIYLGSYRASGVPDRFSGSGSGTDFTLKISRVEAEDVGLYYCMQGLQIPSTFGPGTKVDIK
notes: scFv-phage in the screening ELISA; whole IgG in the other assays
As for B1, the OD490 with M14 was found to be 0.8; in the assay with M13 it was 0.7; with M6, 0.3; with M5-2 it was 0.6; in the assay with M5-1 it was 0.1; in the assay with M1-1 it was 0.2. Also, the OD490 with M7-2 came to 0.3; with M12, 0.3; in the assay with M3, 0.3; with M1, 0.2; in the assay with M1-2, 0.4; in the assay with M4, 1.1. Besides, the OD490 came out at 0.4 in the assay with M2-1; 0.6 in the assay with M2-2; 0.1 with M5; 0.1 in the assay with M10; 0.1 with M7; 0.1 with ITGA6-Fc. For the same molecule, the OD490 with M7-1 was determined as 0.1; in the assay with M9, 0.3; with M2, 0.1; in the assay with M11, 0.1; with M8, 0.1.

B2: PD1-29H3 (antibody, V domains shown)
VH: QMQLVESGGNLVQPGRSLRLSCAASGFTFDDYGMHWVRQAPGKGLEWVSSISWNSGTIGYADSVKGRFTISRDNAKNSLYLQMNSLRSEDTAVYYCARLLHQMNEHEFMDVWGQGTTVTVSS
VL: QLVLTQPSSMSEAPGQRVTISCSGGTSNIGTNAVNWYQQPPGKAPTLLIYYDDRLTSGVSDRFSGSKSGTSASLAISRLQSEDEADYYCAAWDDSLNGWVFGGGTKLTVL
notes: scFv-phage in the screening ELISA; later whole IgG
With B2, the OD490 with M14 was 3.5; with M13 it was 3.5; with M6, 3.5; with M5-2 it was 3.7; with M5-1, 2; in the assay with M1-1, 3.2. Further, the OD490 with M7-2 amounted to 3.1; with M12 it was 3; with M3 it was 2.3; in the assay with M1, 1.5; with M1-2, 0.6; in the assay with M4, 3.3. The OD490 was 2.8 with M2-1; 3.2 in the assay with M2-2; 2 in the assay with M5; 3 with M10; 1.4 with M7; 0.3 with ITGA6-Fc. Besides, the OD490 is 1.5 in the assay with M7-1; 3.4 with M9; 0.7 with M2; 1 in the assay with M11; 2.2 with M8; 3.6 in assay [1].

B3: PD1-32A6 (antibody, V domains shown)
VH: QVQLVQSGAEVKKPGSSVKVSCKASGDTFTRNAVSWVRQAPGEGLEWMADIIPIFGSANYAQKFQGRLTLTADVSTSTAYMELSSLRSEDTAVYYCARTIEGAFDIWGQGTMVTVSS
VL: DIQMTQSPSSVSASVGDRVTITCRASQGIVSWLAWYQQKPGKAPRLLIYRASDLETGVPSRFSGSGSGTDFTLTISSLQPEDVATYYCQQADSFPLTFGGGTKVEIK
notes: as for B2
With B3, the OD490 is 1.7 with M14; 0.5 in the assay with M13; 2.9 with M6; 2.8 with M5-2; 3.6 with M5-1; 2.6 with M1-1. Further, the OD490 came out at 2.8 with M7-2; 2.7 with M12; 3 with M3; 2.4 with M1; 2.8 with M1-2; 2.4 in the assay with M4. The OD490 with M2-1 turned out to be 2.8; in the assay with M2-2 it was 2.7; in the assay with M5, 2.9; in the assay with M10, 2.5; with M7 it was 3.2; in the assay with ITGA6-Fc, 0.3. The OD490 is 3.1 with M7-1; 2.4 with M9; 3.2 with M2; 3.3 in the assay with M11; 3.1 with M8; 3.5 in assay [1].

B4: PD1-31F3 (antibody, V domains shown)
VH: QVQLVQSGAEVKKPGSSVKVSCKASGGTFSSYAISWVRQAPGQGLEWMGGIIPLFSTAHSAQKFQGRVTITADESSSTAYMELSSLRSEDTAVYYCAKHKGLPFDWSPDGFDTWGQGTMVTVSS
VL: QFVLTQPPSVSGAPGQRVIISCTGSSSNIGAGYDVHWYQQLPGTAPKVLIYGNSDRPSGVPDRFSASKSATSASLAITGLQAEDEADYYCQSYDSSLSGYVFGTGTKVTVL
notes: as for B2
As for B4, the OD490 in the assay with M14 amounted to 3.4; with M13, 3.3; in the assay with M6, 3.3; with M5-2, 3.4; in the assay with M5-1 it was 1.3; with M1-1, 3. The OD490 with M7-2 came to 1.5; in the assay with M12, 2.6; in the assay with M3 it was 1.9; in the assay with M1 it was 3; with M1-2, 3.2; with M4 it was 2.7. Besides, the OD490 was determined as 3.5 with M2-1; 3.3 with M2-2; 1.1 in the assay with M5; 3 with M10; 0.7 with M7; 0.4 with ITGA6-Fc. Further, the OD490 with M7-1 is 0.8; in the assay with M9, 3.2; in the assay with M2, 0.7; with M11 it was 0.8; in the assay with M8, 1.7; in assay [1] it was 2.
